Assay results taken from US8022177B2, “Peptides and calcium regulation in mammalian cells” (The Board of Trustees of the University of Illinois, priority 2005, dated 2011).

Key:
[1] = target: T1, Cav3.2 (Homo sapiens, UniProt O95180); assay: Calcium current density in heterologous expression system, Cav3.2; assay type: cell-based; conditions: heterologous expression systems
T1 construct: expressed in transfected cells; host or cells: heterologous expression system (HEK-293 stably transfected with Cav3.2 is mentioned)

[2] = target: T2, Cav3.1 (Homo sapiens, UniProt O43497); assay: Whole-cell patch clamp of Cav3.1 dependent LVA calcium current in HEK-293/Cav3.1 cells transiently transfected with γ subunits (Example 1); assay type: cell-based; conditions: for Effect on current kinetics or voltage dependency: HEK-293/Cav3.1; for Peak current density, % of control value: HEK-293/Cav3.1, normalized to adCGI vector control, mean±S.E.M.; for Activation V 0.5 / Activation k / Deactivation tau @ −100 mV, Fast / Inactivation Tau @ −20 mV / Inactivation V 0.5 / Inactivation k / Time to peak @ −20 mV / V peak: Table 2
T2 construct: expressed in transfected cells; host or cells: HEK-293, stably transfected
T2 sequence (O43497 whole entry): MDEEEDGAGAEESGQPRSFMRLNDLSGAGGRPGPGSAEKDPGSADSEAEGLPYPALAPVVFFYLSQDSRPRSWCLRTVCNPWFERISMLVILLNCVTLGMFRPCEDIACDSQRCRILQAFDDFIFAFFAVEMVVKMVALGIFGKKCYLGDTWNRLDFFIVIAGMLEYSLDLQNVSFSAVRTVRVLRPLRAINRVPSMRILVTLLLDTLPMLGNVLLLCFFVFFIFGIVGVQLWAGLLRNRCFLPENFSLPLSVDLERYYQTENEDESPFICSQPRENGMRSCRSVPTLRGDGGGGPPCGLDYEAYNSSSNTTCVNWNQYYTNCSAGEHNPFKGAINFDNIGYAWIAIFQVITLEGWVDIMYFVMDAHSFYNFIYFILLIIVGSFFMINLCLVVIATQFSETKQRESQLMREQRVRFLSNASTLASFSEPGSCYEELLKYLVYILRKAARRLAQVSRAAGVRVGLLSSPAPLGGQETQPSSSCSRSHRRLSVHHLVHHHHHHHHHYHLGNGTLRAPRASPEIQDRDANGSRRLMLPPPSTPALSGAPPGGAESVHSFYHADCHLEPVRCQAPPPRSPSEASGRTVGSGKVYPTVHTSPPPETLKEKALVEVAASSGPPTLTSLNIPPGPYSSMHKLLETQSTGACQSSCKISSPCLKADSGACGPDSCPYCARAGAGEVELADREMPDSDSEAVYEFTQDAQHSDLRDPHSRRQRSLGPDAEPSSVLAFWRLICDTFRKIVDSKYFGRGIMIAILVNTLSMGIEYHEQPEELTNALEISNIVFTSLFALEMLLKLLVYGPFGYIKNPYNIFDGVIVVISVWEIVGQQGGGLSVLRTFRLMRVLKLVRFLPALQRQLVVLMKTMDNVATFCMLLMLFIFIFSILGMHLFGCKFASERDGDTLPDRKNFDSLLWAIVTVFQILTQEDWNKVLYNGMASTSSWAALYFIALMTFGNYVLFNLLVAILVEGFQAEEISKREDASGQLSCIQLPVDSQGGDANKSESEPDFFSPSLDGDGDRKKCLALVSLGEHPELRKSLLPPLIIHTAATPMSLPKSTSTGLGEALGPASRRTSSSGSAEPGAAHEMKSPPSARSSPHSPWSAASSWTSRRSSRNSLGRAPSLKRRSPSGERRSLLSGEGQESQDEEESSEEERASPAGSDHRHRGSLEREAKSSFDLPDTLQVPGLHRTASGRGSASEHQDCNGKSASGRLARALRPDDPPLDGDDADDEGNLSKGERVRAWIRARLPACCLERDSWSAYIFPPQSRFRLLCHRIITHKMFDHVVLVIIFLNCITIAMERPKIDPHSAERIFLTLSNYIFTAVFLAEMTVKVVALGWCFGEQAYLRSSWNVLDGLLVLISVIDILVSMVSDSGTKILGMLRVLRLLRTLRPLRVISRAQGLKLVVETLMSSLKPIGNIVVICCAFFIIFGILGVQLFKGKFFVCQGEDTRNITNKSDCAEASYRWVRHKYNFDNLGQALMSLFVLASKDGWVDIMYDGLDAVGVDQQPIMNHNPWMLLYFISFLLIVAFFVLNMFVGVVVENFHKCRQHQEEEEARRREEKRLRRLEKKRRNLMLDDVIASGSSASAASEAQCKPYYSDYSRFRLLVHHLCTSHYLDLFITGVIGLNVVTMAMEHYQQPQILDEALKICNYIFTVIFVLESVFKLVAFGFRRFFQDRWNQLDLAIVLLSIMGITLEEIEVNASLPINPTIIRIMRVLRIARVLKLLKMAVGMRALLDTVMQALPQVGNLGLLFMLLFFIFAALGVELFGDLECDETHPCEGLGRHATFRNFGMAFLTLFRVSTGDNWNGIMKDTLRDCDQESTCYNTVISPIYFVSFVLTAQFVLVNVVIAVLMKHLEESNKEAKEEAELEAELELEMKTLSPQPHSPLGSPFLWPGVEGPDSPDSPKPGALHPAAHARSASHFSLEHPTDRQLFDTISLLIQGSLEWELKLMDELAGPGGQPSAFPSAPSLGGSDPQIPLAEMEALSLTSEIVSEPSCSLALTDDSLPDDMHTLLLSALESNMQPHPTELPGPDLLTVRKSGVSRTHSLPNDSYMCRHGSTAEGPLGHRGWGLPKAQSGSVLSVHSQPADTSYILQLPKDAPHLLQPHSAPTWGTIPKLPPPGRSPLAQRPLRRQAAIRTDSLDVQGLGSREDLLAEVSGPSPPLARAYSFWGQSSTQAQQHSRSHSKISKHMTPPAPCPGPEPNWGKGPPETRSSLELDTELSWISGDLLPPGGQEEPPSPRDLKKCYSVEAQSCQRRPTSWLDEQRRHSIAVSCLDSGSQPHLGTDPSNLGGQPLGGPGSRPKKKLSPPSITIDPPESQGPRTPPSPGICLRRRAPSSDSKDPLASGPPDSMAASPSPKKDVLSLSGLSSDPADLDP
Procedure: (§1) 2.3. Transfection. Untransfected HEK-293 cells, HEK-293 cell lines stably transfected with Cav3.1, and HL-1 cells were transiently transfected with vectors containing γ subunit, GFP, and modified CFP cDNAs using Lipofectamine 2000 reagent (InVitrogen) as per the manufacturer's recommendations. HEK-293 cells were grown to 70-80% confluence before transfection. HL-1 cells were grown to 50-75% confluence before transfection.
2.4. Electrophysiology. Whole-cell calcium currents were recorded using an Axopatch-1 D patch clamp system and Clampex 8.0 software. Pipettes were fabricated from borosilicate glass and had typical resistances of 2-4 MΩ. The pipette solution contained (in mM): 130 NaCl, 10 EGTA, 2 MgCl2, 1 CaCl2, 10 HEPES, 3 Tris-ATP, and either 0.3 Li2GTP or 0.3 Tris-GTP, adjusted to pH 7.4 with NaOH and 280 mOsm with sucrose. The bath solution contained (in mM): 137 NaCl (for HEK-293 experiments) or 120 TEACl (for HL-1 experiments), 1 KCl, 1 MgCl2, 0.33 NaH2PO4, 2 CaCl2 (for HEK-293 experiments) or 5 CaCl2 (for HL-1 experiments), 10 glucose (for HL-1 experiments only), 10 HEPES, and 30 μM TTX (for HEK-293 experiments only), adjusted to pH 7.4 with NaOH (for HEK-293 experiments) or TEAOH (for HL-1 experiments) and 280 mOsm with sucrose. NaCl was used as the major salt in the pipette solution order to eliminate any outward K+ currents.
Recordings from HEK-293 cells were made 48-96 h posttransfection, at which time expression, as measured by GFP fluorescence, peaked. HL-1 cells were used for recording 24-36 h post-transfection. Current densities in HEK-293/Cav3.1 cell experiments were normalized to control for variation in current expression in the different frozen stocks of stable cell lines used. […] HL-1 experiments were performed using a single stock of cells. All HEK-293 data are from current records in which pipette and whole-cell capacitance were about 100% compensated and series resistance was compensated to >80%. Whole-cell capacitance and series resistance were not compensated for HL-1 recordings as currents were typically <100 pA. Series resistance values were typically <10 MX, and no records were used in which the voltage error (as defined by Ver=Imax×Ra) was greater than 5 mV. The holding potential of all protocols used for HEK-293 cells was −100 mV except for steady-state inactivation protocols where the holding potential was −120 mV. The holding potential for protocols used for HL-1 cells was −90 mV. Current-voltage relationships for all HEK-293 and HL-1 cells were measured using 50 ms test depolarizations. Peak current amplitudes for activation curves were determined by fitting tail currents, elicited by stepping membrane voltage from varying test potentials to −60 mV, with the Boltzman equation. Test potential steps for activation protocols were of varied durations, corresponding to the time to peak of the elicited current. Inactivation curves were determined by fitting peak amplitudes of currents, observed in a test pulse to −20 mV, following 500 ms steps to varying potentials, with the Boltzman equation. Time to peak was determined using the current-voltage protocol described above. Inactivation time constants were determined by fitting the decay phase of currents to an exponential equation and deactivation time constants were determined by fitting the decay phase of tail currents to an exponential equation. […] Currents were recorded at 40 kHz and on-line filtered at either 5 or 10 kHz. In some cases currents were off-line filtered at 1 kHz to further reduce noise. Current/voltage relationships and tail currents were recorded from HEK cells using an on-line P/−4 subtraction procedure. Calcium currents recorded from HL-1 cells were off-line leak subtracted. The average membrane capacitance of untransfected HEK-293 cells in pilot experiments was 12.5±1.4 pF (n=8). […]

[3] = system: endogenous LVA calcium current in HL-1 cells; assay: Whole-cell patch clamp of endogenous LVA calcium current in HL-1 cells transfected with γ subunits; assay type: cell-based, mouse
Procedure: HL-1 cells were a gift from Dr. William C. Claycomb and were maintained as previously reported. Briefly, HL-1 cells were grown in HL-1 medium containing Claycomb medium (JRH Biosciences) supplemented with 10% fetal bovine serum (JRH Biosciences), 0.1 mM norepinephrine (Sigma), 2 mM L-glutamine (Sigma), and 100 U/ml:100 μg/ml:250 ng/ml of penicillin/streptomycin/ amphotericin B (Life Technologies) in a humidified 5% CO2 incubator at 37° C. Cells were passed when confluent at a 1:3 dilution into flasks or plates pre-coated with a 1:80 dilution of fibronectin and 0.02% gelatin (Sigma). Cells from passages 86-108 were used for this study.
as §1
2.4. Electrophysiology. Whole-cell calcium currents were recorded using an Axopatch-1 D patch clamp system and Clampex 8.0 software. Pipettes were fabricated from borosilicate glass and had typical resistances of 2-4 MΩ. […]
Recordings from HEK-293 cells were made 48-96 h posttransfection, at which time expression, as measured by GFP fluorescence, peaked. […] Current-voltage relationships for all HEK-293 and HL-1 cells were measured using 50 ms test depolarizations. Peak current amplitudes for activation curves were determined by fitting tail currents, elicited by stepping membrane voltage from varying test potentials to −60 mV, with the Boltzman equation. […] Inactivation curves were determined by fitting peak amplitudes of currents, observed in a test pulse to −20 mV, following 500 ms steps to varying potentials, with the Boltzman equation. Time to peak was determined using the current-voltage protocol described above. […]

[4] = target: T3, Cav2.3 (Homo sapiens, UniProt Q15878); assay: Calcium current density in heterologous expression system, Cav2.3; assay type: cell-based; conditions: heterologous expression systems
T3 construct: expressed in transfected cells
T3 sequence (Q15878 whole entry): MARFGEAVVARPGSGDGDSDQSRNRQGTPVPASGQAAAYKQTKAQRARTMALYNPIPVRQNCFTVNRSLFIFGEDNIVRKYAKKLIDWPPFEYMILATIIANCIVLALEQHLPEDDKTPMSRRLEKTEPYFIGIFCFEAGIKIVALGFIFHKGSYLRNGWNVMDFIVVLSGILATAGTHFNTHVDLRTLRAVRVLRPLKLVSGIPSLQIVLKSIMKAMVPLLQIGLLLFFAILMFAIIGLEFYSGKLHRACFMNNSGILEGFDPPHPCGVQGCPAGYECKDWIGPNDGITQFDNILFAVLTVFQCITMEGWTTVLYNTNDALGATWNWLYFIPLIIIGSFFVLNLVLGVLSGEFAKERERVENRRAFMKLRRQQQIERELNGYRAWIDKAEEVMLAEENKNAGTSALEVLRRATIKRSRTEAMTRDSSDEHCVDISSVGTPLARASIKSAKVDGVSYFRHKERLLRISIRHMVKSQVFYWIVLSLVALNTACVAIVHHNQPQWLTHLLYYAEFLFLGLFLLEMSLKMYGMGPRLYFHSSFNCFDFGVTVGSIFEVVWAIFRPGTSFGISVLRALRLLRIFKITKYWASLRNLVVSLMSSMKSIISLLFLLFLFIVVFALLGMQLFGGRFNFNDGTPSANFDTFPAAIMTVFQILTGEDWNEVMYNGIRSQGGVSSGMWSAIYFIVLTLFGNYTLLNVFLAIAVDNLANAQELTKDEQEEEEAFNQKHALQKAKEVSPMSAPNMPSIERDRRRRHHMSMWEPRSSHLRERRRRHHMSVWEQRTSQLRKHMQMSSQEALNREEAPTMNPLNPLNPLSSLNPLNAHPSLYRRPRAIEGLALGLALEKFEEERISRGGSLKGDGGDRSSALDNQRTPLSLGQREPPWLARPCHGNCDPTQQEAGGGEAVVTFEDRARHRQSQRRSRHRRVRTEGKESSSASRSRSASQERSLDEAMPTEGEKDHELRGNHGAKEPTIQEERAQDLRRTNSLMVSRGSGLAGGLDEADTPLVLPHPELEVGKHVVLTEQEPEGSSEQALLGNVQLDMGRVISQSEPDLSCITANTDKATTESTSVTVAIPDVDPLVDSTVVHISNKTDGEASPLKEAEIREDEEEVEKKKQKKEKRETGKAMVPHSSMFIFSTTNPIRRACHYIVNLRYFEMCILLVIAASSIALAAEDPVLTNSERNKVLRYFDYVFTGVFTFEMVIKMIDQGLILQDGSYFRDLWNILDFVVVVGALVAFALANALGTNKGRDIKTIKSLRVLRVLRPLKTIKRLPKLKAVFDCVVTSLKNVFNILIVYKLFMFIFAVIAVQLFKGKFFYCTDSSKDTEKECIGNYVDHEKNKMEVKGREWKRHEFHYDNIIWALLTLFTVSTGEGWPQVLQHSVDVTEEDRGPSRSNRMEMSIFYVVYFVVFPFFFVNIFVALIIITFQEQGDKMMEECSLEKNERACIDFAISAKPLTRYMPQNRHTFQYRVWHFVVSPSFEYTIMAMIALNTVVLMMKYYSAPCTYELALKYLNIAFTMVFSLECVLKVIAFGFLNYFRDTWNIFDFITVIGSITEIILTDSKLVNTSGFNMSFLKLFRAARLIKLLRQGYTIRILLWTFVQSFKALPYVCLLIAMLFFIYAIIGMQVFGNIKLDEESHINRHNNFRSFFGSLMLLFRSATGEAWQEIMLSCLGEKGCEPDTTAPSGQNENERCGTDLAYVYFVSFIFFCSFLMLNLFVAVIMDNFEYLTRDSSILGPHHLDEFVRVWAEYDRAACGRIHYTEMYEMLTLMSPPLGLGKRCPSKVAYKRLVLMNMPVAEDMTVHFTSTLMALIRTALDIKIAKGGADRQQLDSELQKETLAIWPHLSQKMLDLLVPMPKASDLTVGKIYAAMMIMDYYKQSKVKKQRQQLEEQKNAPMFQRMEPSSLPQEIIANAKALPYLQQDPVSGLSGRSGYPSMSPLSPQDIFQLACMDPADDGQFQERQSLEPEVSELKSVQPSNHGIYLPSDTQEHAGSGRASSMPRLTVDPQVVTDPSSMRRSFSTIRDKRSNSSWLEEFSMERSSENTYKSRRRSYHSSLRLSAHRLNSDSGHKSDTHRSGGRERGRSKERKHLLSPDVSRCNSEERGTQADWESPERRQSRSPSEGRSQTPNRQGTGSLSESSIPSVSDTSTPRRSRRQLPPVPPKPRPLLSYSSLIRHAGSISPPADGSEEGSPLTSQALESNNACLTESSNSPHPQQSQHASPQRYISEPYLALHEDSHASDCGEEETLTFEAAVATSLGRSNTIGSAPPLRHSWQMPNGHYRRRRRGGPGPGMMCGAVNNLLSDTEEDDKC

B1: γ6L: rat calcium channel γ6 subunit, long isoform (AF361343), SEQ ID NO:48 (protein, listed as Rattus norvegicus)
chain: MMWSNFFMQEEDRRRTAVGRRRAQEQQNLGLTPEREGKIKLGLLVAIVGATLAVLAVGTEFWVELNTYKTNGSAVCEAAHLGLWKVCIKRLWQADVPAGRETCGPAELPGEANCTYFKFFTTGENAHIFQRTTKKEVNLAAAVIAVLGLTAMALGCLCVIMVLSKGAEFLLRLGAVCFGLSGLLLFVSLEVFRHSVRALLQGVNPETPPAPRLAYEYSWSLGCGVGAGLILLLGGVCFLLLTLPSWPWRSLCPKRGGPTA
In the case of B1, the “Effect on Cav3.2 calcium current density” value [1] is reported as “decreased”, the “Effect on current kinetics or voltage dependency” value [2] is reported as “did not alter current kinetics or voltage dependency” and the “Peak current density, % of control value” [2] is reported as 51%±17%. The “Activation V 0.5” value [2] was −36.3 ± 6.2 (n = 4) mV, the Activation k [2] was 12.7 ± 1.5 (n = 4) and the “Deactivation tau @ −100 mV, Fast” value [2] was 1.54 ± 0.48 (n = 4) ms. The “Inactivation Tau @ −20 mV” value [2] was 18.6 ± 1.1 (n = 6) ms, the “Inactivation V 0.5” value [2] was −78.5 ± 2.6 (n = 6) mV and the Inactivation k [2] was 5.4 ± 0.3 (n = 6). For the same molecule, the “Time to peak @ −20 mV” value [2] was 6.0 ± 0.8 (n = 5) ms, the V peak [2] was −31.1 ± 3.1 (n = 9) mV and the “Decrease in Cav3.1 current density” value ([2]; co-expression with Cav3.1 in HEK-293 cells) was 49%. For the same molecule, the LVA current density [3] was 3.37±0.62 pA/pF, the “Reduction of endogenous LVA current density from control” value ([3]; transient expression) was 63% and the “Effect on Cav2.3 calcium current density” value [4] was “decreased”.

B2: γ4: rat calcium channel γ4 subunit (AF361341), SEQ ID NO:47 (protein, listed as Rattus norvegicus)
chain: MVRCDRGLQMLLTTAGAFAAFSLMAIAIGTDYWLYSSAHICNGTNLTMDDGPPPRRARGDLTHSGLWRVCCIEGIYKGHCFRINHFPEDNDYDHDSSEYLLRIVRASSVFPILSTILLLLGGLCIGAGRIYSRKNNIVLSAGILFVAAGLSNIIGIIVYISSNTGDPSDKRDEDKKNHYNYGWSFYFGALSFIVAETVGVLAVNIYIEKNKELRFKTKREFLKASSSSPYSRMPSYRYRRRRSRSSSRSTEASPSRDASPVGLKITGAIPMGELSMYTLSREPLKVTTAASYSPDQDAGFLQMHDFFQQDLKEGFHVSMLNRRTTPV
For B2, the “Effect on current kinetics or voltage dependency” value [2] was “did not alter current kinetics or voltage dependency”, the “Peak current density, % of control value” [2] was 93%±7% and the “Effect on Cav3.1 current” value ([2]; HEK-293 cells) was “no significant effect”. For the same molecule, the “Activation V 0.5” value [2] was −37.3 ± 0.9 (n = 8) mV, the Activation k [2] was 11.8 ± 0.5 (n = 8) and the “Deactivation tau @ −100 mV, Fast” value [2] was 1.84 ± 0.28 (n = 8) ms. For the same molecule, the “Inactivation Tau @ −20 mV” value [2] was 15.8 ± 0.7 (n = 7) ms, the “Inactivation V 0.5” value [2] was −79.2 ± 1.5 (n = 7) mV and the Inactivation k [2] was 6.1 ± 0.2 (n = 7). For the same molecule, the “Time to peak @ −20 mV” value [2] was 5.2 ± 0.5 (n = 9) ms, the V peak [2] was −30.6 ± 1.5 (n = 9) mV and the “Peak current, % of control value” ([2]; doubling the amount of γ4 DNA transfected) was 128%±19%. For the same molecule, the LVA current density [3] was 9.14±1.34 pA/pF.
